± gives the standard deviation of the averaged measurements.
tested on: ATP; assay: switch fluorescence ratio, 500 uM ATP over buffer (Cy3 cluster intensity, sum of 5 cycles each) (fold (ratio)); higher = stronger signal-on switching upon ATP binding; sequences stand for … in TCGTCGGCAGCGTCAGATGTGTATAAGAGACAGTTTTTTTTTTTTTTTTTTTTTTTTT…TC; conditions: aptamer strand: ATP DNA aptamer (quencher-CACCTGGGGGAGTATTGCGGAGGAAGG + anchor), 100 nM annealed; ATP concentration: 500 uM
Method in brief: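 Clusters with intensities outside 100-1000 RFU were excluded. The remaining Cy3-labelled switching-strand clusters on a modified Illumina MiSeq flow-cell had been annealed to 100 nM quencher-labelled ATP aptamer and imaged in selection buffer, then after 15 min with 500 uM ATP at 22 °C, for five cycles separated by NaOH stripping and re-annealing. The fluorescence ratio, averaged per switch-domain sequence, is each cluster's summed target-cycle Cy3 intensity over its summed buffer-cycle Cy3 intensity.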
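Note: ATP exposure 15 min at 22 °C before imaging.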

| Sequence | switch fluorescence ratio |
| --- | --- |
| AAGGGGGTAA | 0.977 ± 0.012 |
| AAGGGGTCTT | 0.981 ± 0.027 |
| AAGGGGTTCA | 0.991 ± 0.03 |
| AAGGGTAGAT | 1.01 ± 0.038 |
| AAGGGTAGGA | 1 ± 0.013 |
| AAGGGTAGGC | 1.03 ± 0.042 |
| AAGGGTAGTT | 0.997 ± 0.028 |
| AAGGGTATGT | 0.981 ± 0.029 |
| AAGGGTCCAC | 0.9907 ± 0.0079 |
| AAGGGTGAC | 1.01 ± 0.032 |
| AAGGGTGCGA | 1.02 ± 0.04 |
| AAGGGTGCTA | 0.9787 ± 0.0016 |
| AAGGGTGTCA | 1.022 ± 0.0032 |
| AAGGGTTAGA | 0.9864 ± 0.0021 |
| AAGGGTTTGC | 0.974 ± 0.022 |
| AAGGGTTTTT | 0.994 ± 0.025 |
| AAGGTACTAC | 1.03 ± 0.065 |
| AAGGTAGAGC | 1.03 ± 0.034 |
| AAGGTAGCAC | 1.03 ± 0.011 |
| AAGGTAGCGC | 0.974 ± 0.059 |
| AAGGTAGGGT | 1.025 ± 0.0034 |
| AAGGTAGTGT | 0.989 ± 0.028 |
| AAGGTATGGG | 1.06 ± 0.073 |
| AAGGTCATAA | 1.01 ± 0.053 |
| AAGGTCCGCG | 1.08 ± 0.027 |

| Sequence | switch fluorescence ratio |
| --- | --- |
| AAGGTCGCGT | 0.9906 ± 0.0039 |
| AAGGTCTTTA | 1 ± 0.035 |
| AAGGTGGGGA | 1.02 ± 0.034 |
| AAGGTGGTTG | 0.969 ± 0.016 |
| AAGGTTCGGG | 0.994 ± 0.018 |
| AAGGTTGTTG | 1 ± 0.012 |
| AAGGTTTTTT | 1.01 ± 0.02 |
| AAGTACCTAT | 1.27 ± 0.058 |
| AAGTACTTGG | 1.17 ± 0.017 |
| AAGTAGATCC | 1.04 ± 0.044 |
| AAGTAGATGG | 0.991 ± 0.029 |
| AAGTAGCCGT | 1.19 ± 0.19 |
| AAGTAGTGGG | 0.96 ± 0.028 |
| AAGTATATGG | 1.03 ± 0.029 |
| AAGTATATGT | 0.998 ± 0.027 |
| AAGTATATTG | 0.991 ± 0.025 |
| AAGTATCGAC | 1.05 ± 0.023 |
| AAGTATTATT | 0.983 ± 0.03 |
| AAGTATTTCG | 0.9995 ± 0.0062 |
| AAGTCAGCTG | 0.9826 ± 0.004 |
| AAGTCGAGTC | 0.996 ± 0.018 |
| AAGTCGCTGT | 1.02 ± 0.016 |
| AAGTCGGGGG | 1 ± 0.029 |
| AAGTCGGTGG | 0.987 ± 0.07 |
| AAGTCGGTGT | 0.988 ± 0.027 |

| Sequence | switch fluorescence ratio |
| --- | --- |
| AAGTCTAAGG | 0.964 ± 0.05 |
| AAGTCTGCCA | 1.47 ± 0.66 |
| AAGTGAGGCA | 0.963 ± 0.06 |
| AAGTGAGGGT | 0.996 ± 0.036 |
| AAGTGATGGG | 0.988 ± 0.045 |
| AAGTGATTTG | 1.01 ± 0.018 |
| AAGTGCGGGA | 0.9967 ± 0.0086 |
| AAGTGCTTTT | 1.01 ± 0.052 |
| AAGTGGCCGT | 1.01 ± 0.041 |
| AAGTGGGTTC | 0.9824 ± 0.0052 |
| AAGTGGTCAC | 1.01 ± 0.029 |
| AAGTGGTGCA | 0.974 ± 0.013 |
| AAGTGGTGCT | 1.024 ± 0.0011 |
| AAGTGTAGAG | 1.027 ± 0.0092 |
| AAGTGTATGC | 1.01 ± 0.038 |
| AAGTGTATGG | 0.997 ± 0.0098 |
| AAGTGTTCAG | 0.982 ± 0.027 |
| AAGTTAATTT | 0.998 ± 0.021 |
| AAGTTACTAC | 1.06 ± 0.027 |
| AAGTTAGGGA | 0.919 ± 0.083 |
| AAGTTATGCT | 1 ± 0.014 |
| AAGTTCACAA | 1.01 ± 0.033 |
| AAGTTCACCA | 1.02 ± 0.018 |
| AAGTTCTATA | 1.01 ± 0.043 |
| AAGTTGATAA | 1 ± 0.035 |

| Sequence | switch fluorescence ratio |
| --- | --- |
| AAGTTGATTC | 0.979 ± 0.016 |
| AAGTTGCTTG | 0.989 ± 0.02 |
| AAGTTGGAGT | 1.02 ± 0.027 |
| AAGTTGGATA | 0.993 ± 0.019 |
| AAGTTGGGCT | 1.01 ± 0.025 |
| AAGTTGGGGG | 1.01 ± 0.025 |
| AAGTTGTGGG | 0.967 ± 0.043 |
| AAGTTGTGTT | 0.996 ± 0.033 |
| AAGTTTACGC | 0.983 ± 0.025 |
| AAGTTTATAG | 1.03 ± 0.0066 |
| AAGTTTGAGT | 0.982 ± 0.022 |
| AAGTTTGATA | 0.981 ± 0.058 |
| AAGTTTGTTA | 0.995 ± 0.042 |
| AAGTTTTATG | 1.03 ± 0.059 |
| AAGTTTTGCA | 1.007 ± 0.0091 |
| AATAAACAGC | 1.006 ± 0.0078 |
| AATAAAGGTT | 1.1 ± 0.18 |
| AATAACTAGA | 0.9804 ± 0.0037 |
| AATAACTAGG | 1 ± 0.025 |
| AATAAGAGAG | 1.001 ± 0.0078 |
| AATAAGGATA | 1.01 ± 0.026 |
| AATAAGGTA | 0.995 ± 0.022 |
| AATAAGGTTG | 0.982 ± 0.04 |
| AATAAGTGGT | 0.989 ± 0.023 |
| AATAAGTTGT | 0.999 ± 0.035 |

| Sequence | switch fluorescence ratio |
| --- | --- |
| AATAATAGCC | 1.01 ± 0.042 |
| AATAATCGCC | 1 ± 0.05 |
| AATAATCGGT | 0.975 ± 0.035 |
| AATAATGCGG | 0.9969 ± 0.0071 |
| AATAATTTGG | 0.978 ± 0.012 |
| AATACCATTT | 1.01 ± 0.035 |
| AATACGGGAC | 1.303 ± 0.0093 |
| AATACTGAGC | 1.04 ± 0.053 |
| AATACTTGGG | 0.966 ± 0.01 |
| AATAGAGGTC | 0.988 ± 0.013 |
| AATAGATTCG | 0.982 ± 0.017 |
| AATAGCTCGG | 0.9867 ± 0.0047 |
| AATAGGATCG | 1.01 ± 0.045 |
| AATAGGCTGG | 1.03 ± 0.013 |
| AATAGGGACC | 1.07 ± 0.089 |
| AATAGGGAGC | 0.997 ± 0.041 |
| AATAGGGATT | 0.984 ± 0.019 |
| AATAGGTGTT | 1.07 ± 0.015 |
| AATAGGTTTT | 1.02 ± 0.011 |
| AATAGTTGGA | 0.9846 ± 0.0064 |
| AATAGTTGGG | 1.03 ± 0.015 |
| AATATAAAGC | 1.012 ± 0.0028 |
| AATATATGCA | 0.991 ± 0.034 |
| AATATCAGGA | 1.026 ± 0.0083 |
| AATATGATTC | 0.992 ± 0.025 |

| Sequence | switch fluorescence ratio |
| --- | --- |
| AATATGCTTT | 1.006 ± 0.0048 |
| AATATGGAGC | 1.08 ± 0.14 |
| AATATGGGT | 1 ± 0.034 |
| AATATGGTTT | 0.966 ± 0.02 |
| AATATGTGGG | 0.975 ± 0.024 |
| AATATGTTCT | 1.02 ± 0.014 |
| AATATTACAT | 1.03 ± 0.034 |
| AATATTACTA | 1.007 ± 0.0041 |
| AATATTCGTT | 0.997 ± 0.039 |
| AATATTGAAG | 1 ± 0.018 |
| AATATTGGTA | 1.01 ± 0.018 |
| AATCAAAAAT | 0.949 ± 0.043 |
| AATCAAATTA | 0.985 ± 0.025 |
| AATCAATTAA | 1.001 ± 0.0016 |
| AATCAATTTT | 1.007 ± 0.0054 |
| AATCAGTCTG | 0.992 ± 0.013 |
| AATCATAGGG | 1.011 ± 0.0087 |
| AATCATATTA | 1.01 ± 0.049 |
| AATCATGGGG | 0.993 ± 0.041 |
| AATCCATGCG | 1.004 ± 0.0076 |
| AATCCATGGC | 0.98678 ± 6.8e-05 |
| AATCCCGGGG | 1.19 ± 0.21 |
| AATCCGTTTT | 1.04 ± 0.044 |
| AATCCTTAAT | 1.007 ± 0.0051 |
| AATCCTTTTT | 1.004 ± 0.0084 |

| Sequence | switch fluorescence ratio |
| --- | --- |
| AATCGCACCA | 1.11 ± 0.025 |
| AATCGCTAGC | 1.02 ± 0.011 |
| AATCGCTCTT | 1.007 ± 0.0062 |
| AATCGCTTGG | 0.9965 ± 0.006 |
| AATCGCTTTG | 1.014 ± 0.0029 |
| AATCGGCGTC | 1.08 ± 0.15 |
| AATCGGCTCA | 0.98074 ± 0.00017 |
| AATCGGGCCA | 0.987 ± 0.018 |
| AATCGGGGAT | 1 ± 0.012 |
| AATCGGGGGG | 0.974 ± 0.013 |
| AATCGGGGTC | 1.01 ± 0.015 |
| AATCGGGTAG | 1 ± 0.014 |
| AATCGGGTCA | 0.985 ± 0.021 |
| AATCGGTACT | 1.01 ± 0.038 |
| AATCGGTAGG | 1.01 ± 0.027 |
| AATCGTACGT | 0.959 ± 0.04 |
| AATCGTAGTG | 0.9895 ± 0.0071 |
| AATCGTATTC | 0.972 ± 0.011 |
| AATCGTGTAG | 1.04 ± 0.025 |
| AATCGTTTTT | 1.02 ± 0.12 |
| AATCTCATAA | 0.986 ± 0.034 |
| AATCTCTGGG | 0.992 ± 0.0015 |
| AATCTGGCTG | 0.991 ± 0.023 |
| AATCTGGGGT | 1 ± 0.028 |
| AATCTTTGGA | 1 ± 0.013 |

| Sequence | switch fluorescence ratio |
| --- | --- |
| AATGAAAAAT | 0.989 ± 0.067 |
| AATGAAAATG | 0.9804 ± 0.0089 |
| AATGAAAGCG | 1.01 ± 0.015 |
| AATGAGCGTT | 1.14 ± 0.16 |
| AATGAGTACG | 1.02 ± 0.059 |
| AATGATATCG | 1.03 ± 0.013 |
| AATGATGGGT | 0.985 ± 0.019 |
| AATGCACAGA | 1.05 ± 0.045 |
| AATGCCTCTT | 1.013 ± 0.0028 |
| AATGCCTGCG | 1.02 ± 0.034 |
| AATGCGCCGT | 1.01 ± 0.022 |
| AATGCGTGCG | 1.04 ± 0.023 |
| AATGCTAAGA | 1.01 ± 0.044 |
| AATGCTGCGC | 1.03 ± 0.056 |
| AATGCTTCTC | 1.03 |
| AATGGAGGGG | 0.978 ± 0.019 |
| AATGGAGTTT | 1 ± 0.023 |
| AATGGATACG | 1.05 ± 0.019 |
| AATGGATGGG | 0.999 ± 0.011 |
| AATGGATTTC | 1 ± 0.029 |
| AATGGCATGG | 1.02 ± 0.016 |
| AATGGCTGGT | 0.994 ± 0.017 |
| AATGGGAAAT | 0.968 ± 0.059 |
| AATGGGAGGG | 1 ± 0.032 |
| AATGGGCAGT | 0.989 ± 0.029 |

— the supplement of paper PMC10126150
